Measured values taken from PMC4019675 (Nature cell biology, 2013).

T1: FtsA (wild-type, untagged) (E. coli (PCR amplified from MG1655 …, UniProt P0ABH0 1-420))
T1 sequence (looked up): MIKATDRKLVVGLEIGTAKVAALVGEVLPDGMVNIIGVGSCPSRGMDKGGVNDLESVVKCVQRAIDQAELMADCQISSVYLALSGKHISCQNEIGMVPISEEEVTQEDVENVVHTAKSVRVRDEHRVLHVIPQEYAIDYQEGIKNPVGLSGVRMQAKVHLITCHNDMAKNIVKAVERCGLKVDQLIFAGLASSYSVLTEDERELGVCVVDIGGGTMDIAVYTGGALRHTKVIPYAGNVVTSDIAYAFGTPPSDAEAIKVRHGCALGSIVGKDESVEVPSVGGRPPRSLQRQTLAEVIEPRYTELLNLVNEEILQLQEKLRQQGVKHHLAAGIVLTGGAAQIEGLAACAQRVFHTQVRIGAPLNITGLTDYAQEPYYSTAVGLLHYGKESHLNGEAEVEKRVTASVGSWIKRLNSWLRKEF

B1: FtsZ (untagged) (natural protein, UniProt P0A9A6 1-383, looked up)
chain: MFEPMELTNDAVIKVIGVGGGGGNAVEHMVRERIEGVEFFAVNTDAQALRKTAVGQTIQIGSGITKGLGAGANPEVGRNAADEDRDALRAALEGADMVFIAAGMGGGTGTGAAPVVAEVAKDLGILTVAVVTKPFNFEGKKRMAFAEQGITELSKHVDSLITIPNDKLLKVLGRGISLLDAFGAANDVLKGAVQGIAELITRPGLMNVDFADVRTVMSEMGYAMMGSGVASGEDRAEEAAEMAISSPLLEDIDLSGARGVLVNITAGFDLRLDEFETVGNTIRAFASDNATVVIGTSLDPDMNDELRVTVVATGIGMDKRPEITLVTNKQVQQPVMDRYQQHGMAPLTQEQKPVAKVVNDNAPQTAKEPDYLDIPAFLRKQAD

What was measured:
FtsZ (untagged) = target: B1; assay: co-sedimentation
[1] = target: T1, FtsA (wild-type, untagged); assay: co-sedimentation

Row | binding result (FtsZ (untagged)) | binding result [1] | Binder
1 | binds | – | His-Δ22-ZipA (domain or fragment) not shown
2 | – | binds | B1
